This is an account of results in patent US20200191797A1.

Test [1] addresses IgE of pooled serum samples (human). Briefly: cross-inhibition ELISA; C. idella parvalbumin on the plate; inhibitor concentration not stated. A general note: In an ELISA, binding on a coated surface is turned into a signal by an enzyme label.
Test [2] has the same target. As to the kind of experiment: cross-inhibition ELISA; inhibitor 50 ug/ml with pooled sera; C. idella parvalbumin on the plate.
For test [3] the target is unchanged. As to the kind of experiment: cross-inhibition ELISA; inhibitor 1 ug/ml with pooled sera; C. idella parvalbumin on the plate.

B1: recombinant aldolase A of grass carp Ctenopharyngodon idella (enzyme, not shown: small tags and cut ends)
chain: MPHAYPFLTPEQKKELSDIALRIVAPGKGILAADESTGSVAKRFQSINAENTEENRRLYRQLLFTADDRVKPCIGGVILFHETLYQKADDGKLFSQLLKERGMVVGIKVDKGVVPLAGTNGETTTQGLDGLYERCAQYKKDGADFAKWRCVLKITSTTPSRLAIIENANVLARYASICQMHGIVPIVEPEILPDGDHDLKRCQYVTEKVLAAVYKALSDHHVYLEGTLLKPNMVTAGHSCSQKNTPQEIAMATVTALRRTVPPAVPGITFLSGGQSEEEATLNLNAMNKCPLHRPWALTFSYGRALQASALKAWGGKKENGKACQEEFIKRALNNSLACVGKYVSSGDKGAAAGESLFVANHAY
The molecule B1 displayed a % inhibition of IgE binding in test [1] of 10%.

B2: recombinant cod allergen Gad m 1 (cod parvalbumin) (protein, UniProt Q90YK9 1-109, looked up, not shown: small tags and cut ends)
chain: MAFAGILNDADITAALAACKAEGSFDHKAFFTKVGLAAKSPADIKKVFEIIDQDKSDFVEEDELKLFLQNFSAGARALSDAETKVFLKAGDSDGDGKIGVDEFGAMIKA
B2: the % inhibition of IgE binding stood at 50% in test [2] and 40% in test [3].
